Source: PMC9750192 (The Journal of Cell Biology, 2022)

Molecular target: VASH2 (Cys158Ala), the VASH2 chain of the cryo-EM sample (human, UniProt Q86V25 1-355, Cys158 to alanine)
Test: cryo-EM structure

VASH2 (Cys158Ala), the VASH2 chain of the cryo-EM sample, sequence (Q86V25 whole entry C158A): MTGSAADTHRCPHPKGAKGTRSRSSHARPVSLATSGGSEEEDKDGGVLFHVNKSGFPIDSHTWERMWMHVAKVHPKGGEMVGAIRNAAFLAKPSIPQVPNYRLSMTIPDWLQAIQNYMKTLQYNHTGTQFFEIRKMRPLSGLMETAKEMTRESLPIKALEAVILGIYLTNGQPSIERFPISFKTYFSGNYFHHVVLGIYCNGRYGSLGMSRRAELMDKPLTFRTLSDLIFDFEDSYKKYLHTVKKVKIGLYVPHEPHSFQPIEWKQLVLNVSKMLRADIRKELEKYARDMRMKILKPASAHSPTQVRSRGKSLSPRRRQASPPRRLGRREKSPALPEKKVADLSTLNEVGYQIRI

B1: SVBP with a 6His tag, the SVBP chain of the cryo-EM sample (natural protein, human, UniProt Q8N300 1-66, looked up)
chain: MDPPARKEKTKVKESVSRVEKAKQKSAQQELKQRQRAEIYALNRVMTELEQQQFDEFCKQMQPPGE
Does B1 bind?
Result: binds
